The record followed here is article PMC12713080.

In assay [1] the target is copper (Cu pull-down beads). The assay can be described thus: copper pull-down, IB quantified. To be noted: HEK293T cell lysate; mean+/-SD, n = 3; parent: est. 1.9; read off a plot.
The target in assay [2] is copper (Cu-charged NTA beads). The assay can be described thus: NTA-copper bead pull-down of purified protein, IB quantified. To be noted: 0.5 h at 4 °C; washed with NETN buffer (20 mm Tris-HCl (PH 8.0), 300 mm NaCl, 0.5% NP-40, 1 mm EDTA) 5 times; mean+/-SD, n = 3; parent: est. 2.4; read off a plot.

Regarding HA‐TAK1 (from UniProt O43318) H154A, the response in assay [1] was determined as 1.

In the case of “HA‐TAK1 (from UniProt O43318) H154A; M196A”, the response in assay [1] amounted to 0.95.

Turning to HA‐TAK1 (from UniProt O43318) M196A, the response in assay [1] was determined as 0.8.

As for TAK1-N H154A; M196A, in assay [2], the response is 0.4.
